Measurements reported in patent publication US20210214454A1.

Assays:
[1] = molecular target: human CD40 protein expressed on cells (human) (UniProt P25942); test: flow cytometry on CHO-S cells transiently expressing human CD40; AF647 anti-human IgG (H+L) secondary; GeoMean RL1-H
[2] = molecular target: cynomolgus CD40 protein expressed on CHO-S cells (cynomolgus) (UniProt G7PG38); test: flow cytometry on CHO-S cells transiently expressing cynomolgus CD40; AF647 anti-human IgG (H+L) secondary; GeoMean RL1-H
Chain of cynomolgus CD40 protein expressed on CHO-S cells (cynomolgus) (G7PG38 entry or part of it): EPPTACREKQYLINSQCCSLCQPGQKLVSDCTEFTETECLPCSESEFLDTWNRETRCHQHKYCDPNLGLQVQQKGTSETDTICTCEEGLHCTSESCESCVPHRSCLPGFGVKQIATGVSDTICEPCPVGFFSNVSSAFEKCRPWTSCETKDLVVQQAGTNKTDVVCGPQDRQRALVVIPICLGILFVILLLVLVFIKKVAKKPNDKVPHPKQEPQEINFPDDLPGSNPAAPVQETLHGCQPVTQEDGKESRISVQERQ

Chain of human CD40 protein expressed on cells (human) (P25942 21-277 limits assumed): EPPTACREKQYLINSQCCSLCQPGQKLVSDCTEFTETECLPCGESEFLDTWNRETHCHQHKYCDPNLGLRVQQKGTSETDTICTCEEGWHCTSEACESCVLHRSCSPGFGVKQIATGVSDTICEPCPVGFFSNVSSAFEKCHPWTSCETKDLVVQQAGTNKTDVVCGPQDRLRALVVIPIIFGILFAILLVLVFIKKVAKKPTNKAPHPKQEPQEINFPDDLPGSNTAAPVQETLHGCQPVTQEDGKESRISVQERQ

- EC50 (read off the curve) [1]: 0.01 µg/mL
- EC50 (read off the curve) [2]: 0.01 µg/mL
B1: ADC-1013 analogue (antibody, INN chains, looked up, IgG1, V domains shown)
VH: EVQLLESGGGLVQPGGSLRLSCAASGFTFSTYGMHWVRQAPGKGLEWLSYISGGSSYIFYADSVRGRFTISRDNSENALYLQMNSLRAEDTAVYYCARILRGGSGMDLWGQGTLVTVSS
VL: QSVLTQPPSASGTPGQRVTISCTGSSSNIGAGYNVYWYQQLPGTAPKLLIYGNINRPSGVPDRFSGSKSGTSASLAISGLRSEDEADYYCAAWDKSISGLVFGGGTKLTVL
